# Experiments:
# [1] = test system: wild-type and variant SNAP-GIPR in Gipr-/- mouse islets; test: Insulin secretion from Gipr-/- mouse islets transduced with GIPR adenoviruses; format: cell-based; settings: Fig 6D, Gipr-/- mouse islets
# Protocol: (§1) Isolated islets used for insulin secretion assays were treated in 1.5-ml microcentrifuge tubes. Eight-ten islets were used per well with two-three technical replicates per condition. […] At the end of the treatment, supernatants containing the secreted insulin or glucagon were collected, centrifuged at 1000g for 5 min, and transferred to fresh tubes. […] The lysates were sonicated 3× for 10 s in a water bath and centrifuged at 10,000g for 10 min, and the supernatants were collected. The samples were stored at −20°C until the insulin or glucagon concentrations were determined using an Insulin Ultra-Sensitive HTRF Assay kit (62IN2PEG, Revvity) or an HTRF Glucagon Detection Kit (62CGLPEG, Revvity) respectively, according to the manufacturer’s instructions. GraphPad Prism 9.0 was used for the generation of the standard curve and sample concentration extrapolation. The total insulin or glucagon content was calculated by adding the secreted insulin to the insulin content of the lysates, and secretion was reported as the percentage release of total. The percent secretion of islets treated with agonist was normalized to that of islets treated with vehicle and reported as a fold change.
# [2] = test system: wild-type and variant SNAP-GIPR; test: Surface SNAP-GIPR expression (SNAP-tag labelling) in AD293 cells; format: cell-based, human; settings: for AD293 Surface: Fig S3E, mean; for Surface SNAP-GIPR expression: sheet Fig 1C;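 for all read-outs here: scaled to the experimental average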
# In short: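 Surface GIPR is quantified from wide-field images after labelling intact transfected cells with a membrane-impermeant SNAP probe at 500 nM for 10 min at room temperature. Specific signal, corrected for nontransfected cells, is normalized to the experiment-wide average or to wild-type.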
# [3] = test system: wild-type and variant SNAP-GIPR in wild-type mouse islets; test: Insulin secretion from wild-type mouse islets transduced with GIPR adenoviruses; format: cell-based; settings: Fig 6F
# Protocol: as §1, with “The samples were stored at −20°C until the insulin or glucagon concentrations were determined using an Insulin Ultra-Sensitive HTRF Assay kit (62IN2PEG, Revvity) or an HTRF Glucagon Detection Kit (62CGLPEG, Revvity) respectively, according to the manufacturer’s instructions.” left out
# [4] = test system: wild-type and variant SNAP-GIPR; test: Single-concentration GIP cAMP response by HTRF in INS-1 cells; format: cell-based, human; settings: Fig S3E, mean
# Protocol: All variants were tested in parallel on each occasion to control for transfection efficiency differences between experiments.
# [5] = test system: wild-type and variant SNAP-GIPR in Gipr-/- mouse islets; test: Glucagon secretion from Gipr-/- mouse islets transduced with GIPR adenoviruses; format: cell-based; settings: Fig S6C, Gipr-/- mouse islets
# Protocol: as §1
# [6] = column repeated, paired with cAMP 100 nM
molecule,measurement,setting,value
"R190Q (protein, left off: SNAP-tag, end not stated, kept) RAETGSKGQTAGELYQRWERYRRECQETLAAAEPPSGLACNGSFDMYVCWDYAAPNATARASCPWYLPWHHHVAAGFVLRQCGSDGQWGLWRDHTQCENPEKNEAFLDQRLILERLQVMYTVGYSLSLATLLLALLILSLFRRLHCTRNYIHINLFTSFMLRAAAILSQDRLLPRPGPYLGDQALALWNQALAACRTAQIVTQYCVGANYTWLLVEGVYLHSLLVLVGGSEEGHFRYYLLLGWGAPALFVIPWVIVRYLYENTQCWERNEVKAIWWIIRTPILMTILINFLIFIRILGILLSKLRTRQMRCRDYRLRLARSTLTLVPLLGVHEVVFAPVTEEQARGALRFAKLGFEIFLSSFQGFLVSVLYCFINKEVQSEIRRGWHHCRLRRSLGEEQRQLPERAFRALPSGSGPGEVPTSRGLSSGTLPGPGNEASRELESYC","Insulin secretion, ratio G11 + GIP / G11",[1]; replicate 1,0.6189
same,"Insulin secretion, ratio G11 + GIP / G11",[1]; replicate 2,1.413
same,"Insulin secretion, ratio G11 + GIP / G11",[1]; replicate 3,1.022
same,"Insulin secretion, ratio G11 + GIP / G11",[1]; replicate 4,0.3777
same,AD293 Surface,[2]; [6],0.3804
same,AD293 Surface,[2]; paired with cAMP 100 pM,0.3804
same,Surface SNAP-GIPR expression,[2]; replicate 1,0.4051
same,Surface SNAP-GIPR expression,[2]; replicate 2,0.3209
same,Surface SNAP-GIPR expression,[2]; replicate 3,0.5539
same,Surface SNAP-GIPR expression,[2]; replicate 4,0.3598
same,Surface SNAP-GIPR expression,[2]; replicate 5,0.3596
same,Surface SNAP-GIPR expression,[2]; replicate 6,0.3496
same,Surface SNAP-GIPR expression,[2]; replicate 7,0.6994
same,Surface SNAP-GIPR expression,[2]; replicate 8,0.559
same,Surface SNAP-GIPR expression,[2]; replicate 9,0.4541
same,Surface SNAP-GIPR expression,[2]; replicate 10,0.3587
same,Surface SNAP-GIPR expression,[2]; replicate 11,0.3825
same,Surface SNAP-GIPR expression,[2]; replicate 12,0.3815
same,Surface SNAP-GIPR expression,[2]; replicate 13,0.0633
same,Surface SNAP-GIPR expression,[2]; replicate 14,0.2489
same,Surface SNAP-GIPR expression,[2]; replicate 15,0.3401
same,Surface SNAP-GIPR expression,[2]; replicate 16,0.3428
same,Surface SNAP-GIPR expression,[2]; replicate 17,0.3498
same,Surface SNAP-GIPR expression,[2]; replicate 18,0.3062
same,Surface SNAP-GIPR expression,[2]; replicate 19,0.4941
same,Surface SNAP-GIPR expression,[2]; replicate 20,0.4147
same,Surface SNAP-GIPR expression,[2]; replicate 21,0.448
same,Surface SNAP-GIPR expression,[2]; replicate 22,0.3466
same,Surface SNAP-GIPR expression,[2]; replicate 23,0.3211
same,Surface SNAP-GIPR expression,[2]; replicate 24,0.3185
same,Surface SNAP-GIPR expression,[2]; replicate 25,0.3831
same,Surface SNAP-GIPR expression,[2]; replicate 26,0.4894
same,Surface SNAP-GIPR expression,[2]; replicate 27,0.2936
same,Surface SNAP-GIPR expression,[2]; replicate 28,0.2968
same,Surface SNAP-GIPR expression,[2]; replicate 29,0.3488
same,Surface SNAP-GIPR expression,[2]; replicate 30,0.3484
same,Surface SNAP-GIPR expression,[2]; replicate 31,0.4442
same,Surface SNAP-GIPR expression,[2]; replicate 32,0.3528
same,Surface SNAP-GIPR expression,[2]; replicate 33,0.3442
same,Surface SNAP-GIPR expression,[2]; replicate 34,0.4073
same,Surface SNAP-GIPR expression,[2]; replicate 35,0.5179
same,Surface SNAP-GIPR expression,[2]; replicate 36,0.2819
same,Surface SNAP-GIPR expression,[2]; replicate 37,0.3273
same,Surface SNAP-GIPR expression,[2]; replicate 38,0.3893
same,Surface SNAP-GIPR expression,[2]; replicate 39,0.3839
same,Surface SNAP-GIPR expression,[2]; replicate 40,0.3508
same,Surface SNAP-GIPR expression,[2]; replicate 41,0.4598
same,"Insulin secretion, ratio G11 + GIP / G11",[3]; replicate 1,1.037
same,"Insulin secretion, ratio G11 + GIP / G11",[3]; replicate 2,0.9818
same,"Insulin secretion, ratio G11 + GIP / G11",[3]; replicate 3,1.417
same,"Insulin secretion, ratio G11 + GIP / G11",[3]; replicate 4,0.8398
same,"Insulin secretion, ratio G11 + GIP / G11",[3]; replicate 5,1.788
same,INS-1 cAMP (100 nM),[4],-0.04979
same,"Glucagon secretion, ratio G0.5 + GIP / G0.5",[5]; replicate 1,0.4628
same,"Glucagon secretion, ratio G0.5 + GIP / G0.5",[5]; replicate 2,1.4505
same,"Glucagon secretion, ratio G0.5 + GIP / G0.5",[5]; replicate 3,0.8994
same,"Glucagon secretion, ratio G0.5 + GIP / G0.5",[5]; replicate 4,1.147
R101H (protein) RAETGSKGQTAGELYQRWERYRRECQETLAAAEPPSGLACNGSFDMYVCWDYAAPNATARASCPWYLPWHHHVAAGFVLHQCGSDGQWGLWRDHTQCENPEKNEAFLDQRLILERLQVMYTVGYSLSLATLLLALLILSLFRRLHCTRNYIHINLFTSFMLRAAAILSRDRLLPRPGPYLGDQALALWNQALAACRTAQIVTQYCVGANYTWLLVEGVYLHSLLVLVGGSEEGHFRYYLLLGWGAPALFVIPWVIVRYLYENTQCWERNEVKAIWWIIRTPILMTILINFLIFIRILGILLSKLRTRQMRCRDYRLRLARSTLTLVPLLGVHEVVFAPVTEEQARGALRFAKLGFEIFLSSFQGFLVSVLYCFINKEVQSEIRRGWHHCRLRRSLGEEQRQLPERAFRALPSGSGPGEVPTSRGLSSGTLPGPGNEASRELESYC,"Insulin secretion, ratio G11 + GIP / G11",[1]; replicate 1,2.4659
same,"Insulin secretion, ratio G11 + GIP / G11",[1]; replicate 2,2.05
same,"Insulin secretion, ratio G11 + GIP / G11",[1]; replicate 3,1.407
same,"Insulin secretion, ratio G11 + GIP / G11",[1]; replicate 4,1.963
same,AD293 Surface,[2]; [6],0.3592
same,AD293 Surface,[2]; paired with cAMP 100 pM,0.3592
same,Surface SNAP-GIPR expression,[2]; replicate 1,0.3042
same,Surface SNAP-GIPR expression,[2]; replicate 2,0.5275
same,Surface SNAP-GIPR expression,[2]; replicate 3,0.05814
same,Surface SNAP-GIPR expression,[2]; replicate 4,0.1831
same,Surface SNAP-GIPR expression,[2]; replicate 5,0.7685
same,Surface SNAP-GIPR expression,[2]; replicate 6,0.323
same,Surface SNAP-GIPR expression,[2]; replicate 7,0.4744
same,Surface SNAP-GIPR expression,[2]; replicate 8,0.4381
same,Surface SNAP-GIPR expression,[2]; replicate 9,0.4341
same,Surface SNAP-GIPR expression,[2]; replicate 10,0.6442
same,Surface SNAP-GIPR expression,[2]; replicate 11,0.4281
same,Surface SNAP-GIPR expression,[2]; replicate 12,0.4464
same,Surface SNAP-GIPR expression,[2]; replicate 13,0.04565
same,Surface SNAP-GIPR expression,[2]; replicate 14,0.1907
same,Surface SNAP-GIPR expression,[2]; replicate 15,0.4569
same,Surface SNAP-GIPR expression,[2]; replicate 16,0.5164
same,Surface SNAP-GIPR expression,[2]; replicate 17,0.5151
same,Surface SNAP-GIPR expression,[2]; replicate 18,0.4251
same,Surface SNAP-GIPR expression,[2]; replicate 19,0.384
same,Surface SNAP-GIPR expression,[2]; replicate 20,0.5015
same,Surface SNAP-GIPR expression,[2]; replicate 21,0.5316
same,Surface SNAP-GIPR expression,[2]; replicate 22,0.4149
same,Surface SNAP-GIPR expression,[2]; replicate 23,0.4406
same,Surface SNAP-GIPR expression,[2]; replicate 24,0.4166
same,Surface SNAP-GIPR expression,[2]; replicate 25,0.3346
same,Surface SNAP-GIPR expression,[2]; replicate 26,0.3683
same,Surface SNAP-GIPR expression,[2]; replicate 27,0.2116
same,Surface SNAP-GIPR expression,[2]; replicate 28,0.1755
same,Surface SNAP-GIPR expression,[2]; replicate 29,0.2709
same,Surface SNAP-GIPR expression,[2]; replicate 30,0.3405
same,Surface SNAP-GIPR expression,[2]; replicate 31,0.1773
same,Surface SNAP-GIPR expression,[2]; replicate 32,0.3176
same,Surface SNAP-GIPR expression,[2]; replicate 33,0.2814
same,Surface SNAP-GIPR expression,[2]; replicate 34,0.3758
same,Surface SNAP-GIPR expression,[2]; replicate 35,0.422
same,Surface SNAP-GIPR expression,[2]; replicate 36,0.4366
same,Surface SNAP-GIPR expression,[2]; replicate 37,0.2975
same,Surface SNAP-GIPR expression,[2]; replicate 38,0.1954
same,Surface SNAP-GIPR expression,[2]; replicate 39,0.2342
same,Surface SNAP-GIPR expression,[2]; replicate 40,0.2038
same,Surface SNAP-GIPR expression,[2]; replicate 41,0.2137
same,"Insulin secretion, ratio G11 + GIP / G11",[3]; replicate 1,1.571
same,"Insulin secretion, ratio G11 + GIP / G11",[3]; replicate 2,6.006
same,"Insulin secretion, ratio G11 + GIP / G11",[3]; replicate 3,2.0139
same,"Insulin secretion, ratio G11 + GIP / G11",[3]; replicate 4,1.2264
same,"Insulin secretion, ratio G11 + GIP / G11",[3]; replicate 5,0.7288
same,INS-1 cAMP (100 nM),[4],-0.01312
same,"Glucagon secretion, ratio G0.5 + GIP / G0.5",[5]; replicate 1,1.2225
same,"Glucagon secretion, ratio G0.5 + GIP / G0.5",[5]; replicate 2,1.611
same,"Glucagon secretion, ratio G0.5 + GIP / G0.5",[5]; replicate 3,0.9333
same,"Glucagon secretion, ratio G0.5 + GIP / G0.5",[5]; replicate 4,0.8233
